Biological target: T1, biotinylated CD59 (Homo sapiens, UniProt P13987)
T1 construct: Recombinant soluble human CD59 with an additional C-terminal cysteine residue
T1 sequence (P13987 26-102 limits assumed): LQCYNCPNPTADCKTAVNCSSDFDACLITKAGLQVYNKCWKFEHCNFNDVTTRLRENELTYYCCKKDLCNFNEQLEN
Assay: mRNA-display cyclic peptide screen against CD59-biotin, NGS abundance after 6th selection round
Conditions: for Counts (raw counts for peptide sequence), Seq I: NGS sample Seq I; for Counts (raw counts for peptide sequence), Seq I / Counts (raw counts for peptide sequence), Seq II / Counts Seq I / Counts Seq II: sheet R6 (6th selection round); for Counts (raw counts for peptide sequence), Seq II: NGS sample Seq II; for Percentage of the pool, averaged across the two sequencing samples: average of Seq I and Seq II; for Percentage of the pool, averaged across the two sequencing samples / Percentage of the pool, Seq I / Percentage of the pool, Seq II / Percentage Seq I / Percentage Seq II / Percentage Average: sheet R6; for Percentage of the pool, Seq I: counts normalised by total counts of NGS sample Seq I; for Percentage of the pool, Seq II: counts normalised by total counts of NGS sample Seq II; for Percentage Seq I: counts normalised by total counts of sample Seq I; for Percentage Seq I / Percentage Seq II: percentage of the pool; for Percentage Seq II: counts normalised by total counts of sample Seq II; for Percentage Average: percentage of the pool averaged across the two sequencing samples; for Counts Seq I / Counts Seq II: raw NGS counts of peptide sequence; for Counts Seq I: sequencing sample Seq I; for Counts Seq II: sequencing sample Seq II
Procedure, shortened: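 Peptide–mRNA fusions were made by in vitro translation with a customised PURE express kit. The kit lacked release factor 1 and methionine and was supplemented with […] initiator tRNA carrying N-chloroacetyl-d-tyrosine. Thioether macrocycles were formed, then enriched and amplified over iterative rounds on CD59-biotin immobilised on streptavidin beads. NGS read counts per sequence were recorded after the 6th selection round.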

Sequence	Counts (raw counts for peptide sequence), Seq I	Counts (raw counts for peptide sequence), Seq II	Percentage of the pool, averaged across the two sequencing samples	Percentage of the pool, Seq I	Percentage of the pool, Seq II	Percentage Seq I	Percentage Seq II	Percentage Average	Counts Seq I	Counts Seq II
TAWGNRQIQYY	73	7	0.016%	0.017%	0.016%					
TFAHRVGSCQST						0.019%	0.026%	0.022%	85	11
TFRKRLTATCGT						0.016%	0.028%	0.022%	68	12
TFRSRTSCGAV	51	7	0.014%	0.012%	0.016%					
TILGNKHYVRG						0.140%	0.160%	0.150%	614	69
TISGGRDYTRG						0.948%	0.935%	0.941%	4146	403
TLSTNRDLIRLLAAAAAAARTGGG	57	9	0.017%	0.013%	0.021%					
TLSTNRDLIRLPAAAAAAARTGGG	63	7	0.015%	0.014%	0.016%					
TSYGSRVFAYF						0.031%	0.030%	0.031%	135	13
TYGSRFCPQYCAAAAAAARTGGG						0.030%	0.037%	0.034%	133	16
VAHGSKKSQFW						0.088%	0.104%	0.096%	386	45
VAHGSKNSQFW						0.349%	0.325%	0.337%	1526	140
VARGDWNHQFY	40	7	0.013%	0.009%	0.016%					
VARGNSNTVWG						0.019%	0.021%	0.020%	85	9
VARGSKDWRWS	41	6	0.012%	0.009%	0.014%					
VASGGRYWSRA						0.103%	0.139%	0.121%	449	60
VIWGSRLATGG						0.025%	0.026%	0.025%	109	11
VKYGNSNFVRE						0.047%	0.060%	0.054%	207	26
VKYGNSNFVRG						0.660%	0.657%	0.659%	2889	283
VLCHRWHVGSHR	54	7	0.014%	0.012%	0.016%					
VSRGDSTYTLF						0.031%	0.028%	0.030%	137	12
VVHGGKDYQWS	64	5	0.013%	0.015%	0.012%					
VVRGGTAFRYE						0.022%	0.026%	0.024%	96	11

Sequence	Counts (raw counts for peptide sequence), Seq I	Counts (raw counts for peptide sequence), Seq II	Percentage of the pool, averaged across the two sequencing samples	Percentage of the pool, Seq I	Percentage of the pool, Seq II	Percentage Seq I	Percentage Seq II	Percentage Average	Counts Seq I	Counts Seq II
VWGNRWTRIYW						0.037%	0.035%	0.036%	161	15
VYGSRYASIPFC	45	9	0.016%	0.010%	0.021%					
WAKGSDTFTSG	141	1	0.017%	0.032%	0.00232%					
WATGSATFSSG						0.730%	0.673%	0.702%	3196	290
WILGSRWWTQR						0.021%	0.021%	0.021%	91	9
WILGSRWWTQS						0.921%	0.903%	0.912%	4031	389
WILGSRWWTQT						0.032%	0.030%	0.031%	139	13
WILGSRWWTRS						0.097%	0.111%	0.104%	424	48
WIRGNRDESLG	46	7	0.013%	0.011%	0.016%					
WIRGSRFYRVI						0.387%	0.334%	0.360%	1692	144
WIRGSRWWTQS						0.033%	0.035%	0.034%	146	15
WIYGGRHFRLS	82	2	0.012%	0.019%	0.00464%					
WRDRFDQCAL	67	6	0.015%	0.015%	0.014%					
WRDRFDQCIL	60	5	0.013%	0.014%	0.012%					
WRDRFDQCVI	37	5	0.010%	0.00846%	0.012%					
WRDRFDQCVL						2.463%	2.351%	2.407%	10776	1013
WRDRFDQCVP						0.038%	0.053%	0.046%	167	23
WRDRFDQCVR						0.039%	0.053%	0.046%	169	23
WRDRFDRCVL						0.020%	0.032%	0.026%	86	14
WRDRFGQCVL	27	7	0.011%	0.006%	0.016%					
WRDRLDQCVL						0.019%	0.021%	0.020%	85	9
WSTGSSTFAAG						0.034%	0.042%	0.038%	149	18
WSTRERQISC	70	3	0.011%	0.016%	0.007%					

Reference: article PMC12207370, “Macrocyclic Peptide Probes for Immunomodulatory Protein CD59: Potent Modulators of Bacterial Toxin Activity and Antibody‐Dependent Cytotoxicity” (Angewandte Chemie (International Ed. in English), 2025)
